From patent publication US20040170990A1, “Intracellular nucleic acid inhibitors of small guanine nucleotide exchange factors” (published 2004) come the findings set out here.

Data set [1] concerns the target chimera ARF-1 protein fused at the carboxy terminus to the constant CH1 and CH2 domains of human IgG immunoglobulin (human) (UniProt P84077). Put plainly: cell-based or functional assay.
Data set [2] has as its target T1, cytohesin-1 (full-length) (UniProt Q15438).
T1 sequence: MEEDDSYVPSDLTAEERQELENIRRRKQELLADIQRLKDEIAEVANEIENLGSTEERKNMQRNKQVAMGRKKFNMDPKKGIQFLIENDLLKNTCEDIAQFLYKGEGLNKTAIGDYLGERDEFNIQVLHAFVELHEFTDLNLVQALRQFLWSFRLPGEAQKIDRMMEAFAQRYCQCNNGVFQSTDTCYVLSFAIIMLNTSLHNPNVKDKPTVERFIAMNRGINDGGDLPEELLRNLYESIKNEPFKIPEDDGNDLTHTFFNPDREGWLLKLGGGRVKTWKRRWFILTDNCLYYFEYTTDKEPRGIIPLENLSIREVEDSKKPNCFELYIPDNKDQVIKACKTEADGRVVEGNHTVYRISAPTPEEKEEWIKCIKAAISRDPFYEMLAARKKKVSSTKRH
Put plainly: filter. To be noted: non-selected library; 3 mM MgCl2, 37 C.

Data set [3] deals with T2, Gea2 Sec7 domain (Gea2-Sec7, G2-Sec7) (UniProt P39993 P39993:570-714).
T2 chain: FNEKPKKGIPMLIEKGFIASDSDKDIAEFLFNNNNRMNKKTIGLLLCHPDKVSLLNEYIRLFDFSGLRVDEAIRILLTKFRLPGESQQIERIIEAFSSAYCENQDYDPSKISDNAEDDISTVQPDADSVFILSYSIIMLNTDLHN
Put plainly: filter; no measurable interaction. To be noted: tags: 6xHis, provided by Cathy Jackson. Here is the method: (§1) Natl. Acad. Sci. USA 90 (1993), 11227-11231). […] Of the analysed sequences the clone M69 bound cytohesin-1-His6 with a dissociation constant of 16 nM (see Table 2). As controls the same binding experiments were carried out with E. coli lysates which were treated similarly to the cytohesin-1 expressed in E. coli.
(§2) In the next step the binding site of the aptamer M69 on cytohesin-1 was delimited in more detail. For this purpose filter binding studies were carried out using subdomain constructs of cytohesin-1. The PH domain and the Sec7 domain of cytohesin-1 were overexpressed as 6×His-Tag proteins (PH-His6 and C1-Sec7-His6) in E. coli and purified as described for cytohesin-1-His6. The synthetic polybasic C-peptide was obtained from the company TopLab (Munich). The Sec7 domain of the large Brefeldin A-sensitive ARF-GEF's Gea2 (Gea2-Sec7) was made available as 6×His-Tag protein by Cathy Jackson (Departement de Biologie Cellulaire et Moleculaire, CEA/Saclay, France). […] On the other hand, no interaction with the PH domain or the Sec7 domain of Gea2 could be detected (see Table 2). […] The aptamer M5 on the other hand recognises both the Sec7 domain of cytohesin-1 and also of Gea2 with approximately the same affinity. The PH domain of cytohesin-1 is recognised an order of magnitude less well. […]

For data set [4], the target named is T3, cytohesin-1 PH domain (C1-PH) (UniProt Q15438 Q15438:260-377).
T3 chain: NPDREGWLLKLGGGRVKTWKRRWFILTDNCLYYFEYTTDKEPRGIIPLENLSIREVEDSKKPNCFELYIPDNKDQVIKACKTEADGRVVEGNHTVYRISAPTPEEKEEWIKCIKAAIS
Put plainly: filter; no measurable interaction. As to conditions: tags: 6xHis, E. coli. The method, then: as §1, §2

Data set [5] concerns the target T4, cytohesin-1 (full-length) (UniProt Q15438 Q15438:1-398). Put plainly: filter; 3 mM MgCl2, 37 C. To be noted: tags: 6xHis (cytohesin-1-His6), E. coli, Ni-NTA. The method, then:
as §1
(§3) In the next step the binding site of the aptamer M69 on cytohesin-1 was delimited in more detail. For this purpose filter binding studies were carried out using subdomain constructs of cytohesin-1. The PH domain and the Sec7 domain of cytohesin-1 were overexpressed as 6×His-Tag proteins (PH-His6 and C1-Sec7-His6) in E. coli and purified as described for cytohesin-1-His6. The synthetic polybasic C-peptide was obtained from the company TopLab (Munich). The Sec7 domain of the large Brefeldin A-sensitive ARF-GEF's Gea2 (Gea2-Sec7) was made available as 6×His-Tag protein by Cathy Jackson (Departement de Biologie Cellulaire et Moleculaire, CEA/Saclay, France). […] On the other hand, no interaction with the PH domain or the Sec7 domain of Gea2 could be detected (see Table 2). […] The aptamer M5 on the other hand recognises both the Sec7 domain of cytohesin-1 and also of Gea2 with approximately the same affinity. The PH domain of cytohesin-1 is recognised an order of magnitude less well. The aptamer M56 however binds best to the full-length protein cytohesin-1 and barely to the Sec7 domain of Gea2. Since both the Sec7 domain and also the PH domain of cytohesin-1 are bound with somewhat reduced affinities compared with the full-length protein, the aptamer appears to recognise a binding site on cytosin-1 which is composed of both domains.

In data set [6] the target is T5, cytohesin-1 Sec7 domain (C1-Sec7) (UniProt Q15438 Q15438:73-202).
T5 chain: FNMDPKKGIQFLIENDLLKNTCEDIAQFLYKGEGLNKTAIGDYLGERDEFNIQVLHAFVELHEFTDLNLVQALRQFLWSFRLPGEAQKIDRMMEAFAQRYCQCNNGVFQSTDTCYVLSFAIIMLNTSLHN
Put plainly: filter; 3 mM MgCl2, 37 C. As to conditions: tags: 6xHis, E. coli. The method, then:
as §1, §3

For data set [7], the target named is T2, Gea2 Sec7 domain (Gea2-Sec7, G2-Sec7). Put plainly: filter; 3 mM MgCl2, 37 C. To be noted: tags: 6xHis, provided by Cathy Jackson; label: 5'-32P. Here is the method: as §1, §3
Data set [8] deals with T3, cytohesin-1 PH domain (C1-PH). Put plainly: filter; 3 mM MgCl2, 37 C. To be noted: tags: 6xHis, E. coli; label: 5'-32P. Here is the method:
as §1, §3

In data set [9] the target is T4, cytohesin-1 (full-length). Put plainly: filter; 3 mM MgCl2, PBS-type buffer pH 7.3, 37 C. As to conditions: tags: 6xHis (cytohesin-1-His6), E. coli, Ni-NTA; label: 5'-32P. The method, then:
(§4) Increasing concentrations of cytohesin-1-His6 (0.1 nM to 500 nM) were incubated with the aptamers according to the invention (1.0 nM) radioactively labelled with ³²P at the 5′ end for 1 h at 37° C. in selection buffer. The RNA/cytohesin-1-His6 complexes were then filtered over nitrocellulose acetate mixed membranes (HAWP 0.45 μm, Millipore). The filter was then rinsed with 5 ml of washing buffer (3 mM MgCl₂, 137 mM NaCl, 2.7 mM KCl, 4.3 mM Na₂HPO₄.7H₂O, 1.4 mM KH₂PO₄). Before the experiment the filters were pretreated for 10 minutes with 40 mM 6-aminocaproic acid and 20% ethanol. Radioactive RNA retained on the filters was quantified by analysis using a phosphor imager (Storm 860, Amersham). The dissociation constant (Kd) was determined as described by Jellinek et al. (Jellinek et al., Proc. Natl. Acad. Sci. USA 90 (1993), 11227-11231). […] Of the analysed sequences the clone M69 bound cytohesin-1-His6 with a dissociation constant of 16 nM (see Table 2). As controls the same binding experiments were carried out with E. coli lysates which were treated similarly to the cytohesin-1 expressed in E. coli.

Data set [10] has as its target T2, Gea2 Sec7 domain (Gea2-Sec7, G2-Sec7). Put plainly: filter; barely binds; 3 mM MgCl2, 37 C. As to conditions: tags: 6xHis, provided by Cathy Jackson; label: 5'-32P. Here is the method: The dissociation constant (Kd) was determined as described by Jellinek et al. (Jellinek et al., Proc. Natl. Acad. Sci. USA 90 (1993), 11227-11231). […] Of the analysed sequences the clone M69 bound cytohesin-1-His6 with a dissociation constant of 16 nM (see Table 2). As controls the same binding experiments were carried out with E. coli lysates which were treated similarly to the cytohesin-1 expressed in E. coli.
as §2

The target in data set [11] is T4, cytohesin-1 (full-length). Put plainly: non-binding negative control. To be noted: tags: 6xHis (cytohesin-1-His6), E. coli, Ni-NTA.
For data set [12], the target named is T4, cytohesin-1 (full-length). Put plainly: filter; 3 mM MgCl2, 37 C. To be noted: tags: 6xHis (cytohesin-1-His6), E. coli, Ni-NTA. Here is the method:
Filter binding experiments were carried out in order to test whether the selected aptamer sequences can also recognise native cytohesin-1 in solution. The interaction analyses are described in detail in the literature. (Jellinek et al., Proc. Natl. Acad. Sci. USA 90 (1993), 11227-11231; Jellinek et al., Biochemistry 33 (1994), 10450-10456).
as §4, with “As controls the same binding experiments were carried out with E. coli lysates which were treated similarly to the cytohesin-1 expressed in E. coli.” left out
This is another data set of the same source.

Sequence of chimera ARF-1 protein fused at the carboxy terminus to the constant CH1 and CH2 domains of human IgG immunoglobulin (human) (P84077 whole entry, stated change not applied, the tested form may be a part): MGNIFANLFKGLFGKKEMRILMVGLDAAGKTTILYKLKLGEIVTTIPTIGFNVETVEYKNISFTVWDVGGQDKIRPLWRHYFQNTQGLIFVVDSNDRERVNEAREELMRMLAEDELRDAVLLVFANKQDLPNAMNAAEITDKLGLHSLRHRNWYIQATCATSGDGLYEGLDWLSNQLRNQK

As to “cytohesin-1 (full-length protein) (from UniProt Q15438 1-398) (enzyme)”, in data set [1], the binding of [gamma-35S]-GTP to ARF-1 (GDP/GTP exchange assay) was 10 fold.
As a reminder, the Kd is a measure of binding affinity in units of concentration. Lower therefore signals higher affinity. As to “CUAUAGGGAGAGACAAGCUUGGGUCNNNNNNNNNNNNNNNNNNNNNNNNNNNNNNNNNNNNNNNNAGAAGAGAAAGAGAAGUUAAUUAAGGAUCCUCAG [non-selected N40 RNA library]”, in data set [2], the Kd is greater than 4 µM.

B1: M69 (ssRNA)
RNA: GGGAGAGACAAGCUUGGGUCUAUUAUGCCUUUAGCUAGCGCAUUCUGUGGGGUGGGUGGAAGAAGAGAAAGAGAAGUUAAUUAAGGAUCCUCAG
For B1, the binding result in [3] and in [4] was “no binding” in each case. For the same molecule, the Kd in data set [5] and in data set [6] was 16 nM each time.

B2: M5 (ssRNA)
RNA: GGGAGAGACAAGCUUGGGUCGGGUUCGCUAAGUUGGUCUACCCCUCUCGAAUAUCCGUUAAGAAGAGAAAGAGAAGUUAAUUAAGGAUCCUCAG
For the molecule B2, the Kd in data set [7] is 48 nM; in [8], 480 nM; in [5] (label: 5'-32P), 40 nM; in data set [6] (label: 5'-32P), 36 nM.

B3: M56 (ssRNA)
RNA: GGGAGAGACAAGCUUGGGUCUGUUGUUGGACCAGUGUUAUUUUACGCGAUUGUGCGGUUGUGAAGAGAAAGAGAAGUUAAUUAAGGAUCCUCAG
Regarding B3, the Kd in [9] was 5 nM; in [10], greater than 1000 nM; in [8], 150 nM; in [6] (label: 5'-32P), 280 nM.

B4: ML1 (ssRNA)
RNA: GGGAGAGACAAGCUUGGGUCGUGUCUGUGUAGAGGACAGGGCGAGAGUCUGAUUGUCUGCAGAAGAGAAAGAGAAGUUAAUUAAGGAUCCUCAG
Consider B4, for which the binding result in [11] was “no binding”.

B5: M3 (ssRNA)
RNA: GGGAGAGACAAGCUUGGGUCAGGGAGGGUAGGGAUUUGGUUGUCCCAUGUUCGCAGCCGUAGAAGAGAAAGAGAAGUUAAUUAAGGAUCCUCAG
With B5, the binding result in data set [12] is reported as “binds”.

B6: M41 (ssRNA)
RNA: GGGAGAGACAAGCUUGGGUCGUCAUCCGUGUUUUGUCAUGUUUUGAUGGGGUUUGGGGUGUGAUAAGAGAAAGAGAAGUUAAUUAAGGAUCCUCAG
For the molecule B6, the binding result in data set [12] was “binds”.
